Paper PMC6000670 (2018)

Target: Hsp90 (Saccharomyces cerevisiae, UniProt P02829)
Assay: ITC

Chain of Hsp90 (P02829 whole entry): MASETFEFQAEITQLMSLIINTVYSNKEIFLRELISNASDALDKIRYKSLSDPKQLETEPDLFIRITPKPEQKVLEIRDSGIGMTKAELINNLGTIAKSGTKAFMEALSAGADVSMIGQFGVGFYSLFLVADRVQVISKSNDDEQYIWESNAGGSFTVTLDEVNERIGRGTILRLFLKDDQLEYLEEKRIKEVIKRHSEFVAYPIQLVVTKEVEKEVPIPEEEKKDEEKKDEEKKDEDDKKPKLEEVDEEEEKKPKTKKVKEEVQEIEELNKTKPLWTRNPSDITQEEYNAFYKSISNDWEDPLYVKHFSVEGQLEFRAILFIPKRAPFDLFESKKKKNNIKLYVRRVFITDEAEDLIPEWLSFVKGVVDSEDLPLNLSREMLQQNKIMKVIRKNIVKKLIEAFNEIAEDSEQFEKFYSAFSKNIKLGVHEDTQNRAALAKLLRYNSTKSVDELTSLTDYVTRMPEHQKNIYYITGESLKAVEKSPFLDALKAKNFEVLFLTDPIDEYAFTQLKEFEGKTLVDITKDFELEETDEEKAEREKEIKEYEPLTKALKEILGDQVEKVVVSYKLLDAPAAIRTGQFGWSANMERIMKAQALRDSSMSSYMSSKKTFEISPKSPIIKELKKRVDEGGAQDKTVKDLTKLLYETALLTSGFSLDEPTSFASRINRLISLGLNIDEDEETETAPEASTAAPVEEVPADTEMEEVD

B1: Sti1 (protein)
chain: MSLTADEYKQQGNAAFTAKDYDKAIELFTKAIEVSETPNHVLYSNRSACYTSLKKFSDALNDANECVKINPSWSKGYNRLGAAHLGLGDLDEAESNYKKALELDASNKAAKEGLDQVHRTQQARQAQPDLGLTQLFADPNLIENLKKNPKTSEMMKDPQLVAKLIGYKQNPQAIGQDLFTDPRLMTIMATLMGVDLNMDDINQSNSMPKEPETSKSTEQKKDAEPQSDSTTSKENSSKAPQKEESKESEPMEVDEDDSKIEADKEKAEGNKFYKARQFDEAIEHYNKAWELHKDITYLNNRAAAEYEKGEYETAISTLNDAVEQGREMRADYKVISKSFARIGNAYHKLGDLKKTIEYYQKSLTEHRTADILTKLRNAEKELKKAEAEAYVNPEKAEEARLEGKEYFTKSDWPNAVKAYTEMIKRAPEDARGYSNRAAALAKLMSFPEAIADCNKAIEKDPNFVRAYIRKATAQIAVKEYASALETLDAARTKDAEVNNGSSAREIDQLYYKASQQRFQPGTSNETPEETYQRAMKDPEVAAIMQDPVMQSILQQAQQNPAALQEHMKNPEVFKKIQTLIAAGIIRTGR
modifications: Hsp90 in complex with LA1011 (1 mM)
Kd: 320 nM
